Laboratory results as given in patent US12214076B2, “Drug delivery vehicles for atherosclerosis nanomedicine” (Northwestern University, priority 2019, dated 2025).
Peptide text beside a SMILES is read from it. * marks the point of attachment. Palmitoyl = CCCCCCCCCCCCCCCC(=O)*

Assays:
[1] = TEM nanofiber length of ApoA1-Ac2-26 PA co-assemblies; assay type: physicochemical; settings: aged at least 24 hours at 4° C.
Method: TEM: Conventional TEM images were taken on a FEI Tecnai T-12 TEM at 80 kV with a Gatan Orius® 2 k×2 k CCD camera. PAs at 1 mM in phosphate buffered saline (PBS) were prepared for TEM by pipetting 8 μL atop copper supports that were covered with thin carbon foil 400-mesh and treated with glow discharge. After two minutes, samples were rinsed with deionized water and stained with 2% uranyl acetate for two minutes before imaging. PA nanofiber length was quantified manually using Fiji open source image processing software.

[2] = Nile Red assay, critical aggregation concentration; assay type: physicochemical; settings: PBS, aged 24 hours at 4° C.
Method: Nile Red assay: The critical aggregation concentration (CAC) for PA nanofibers was determined by diluting the PAs in Nile Red solution. Nile Red undergoes a blue shift in fluorescence as the hydrophobic character of PAs in the solvent increases, with a corresponding increase in fluorescence intensity due to reduced twisted intramolecular charge transfer. 10% MMP- and ROS-Ac2-26 PAs were diluted from 1 mM to 100 nM in PBS containing of 2.5 μM Nile Red and aged for 24 hours at 4° C. The PAs were aliquoted in triplicate onto a 96-well plate, excited at 550 nm, and the fluorescence read from […]. The CAC was determined by plotting the log of the concentration with the corresponding maximum fluorescence intensity, and calculating the concentration at the intersection of the baseline and tangent line to the rising curve.

[3] = Small angle x-ray scattering (SAXS) of PA nanofibers; assay type: physicochemical
Method: Small angle x-ray scattering (SAXS): SAXS characterization of the PA nanofibers was performed at the Advanced Photon Source in the Argonne National Laboratory on beamline 5-ID-D, DuPont-Northwestern-Dow Collaborative Access Team Synchrotron Research Center. Samples were prepared at 5 mM in PBS solution, aged at least 24 hours at 4° C., and analyzed in 1.5 mm quartz capillaries (Charles Supper) at 17 keV with a charged couple device photon detector located 245 cm behind the sample. Scattering intensities were collected using wave vector q range of 0.0024 to 0.40 Å^−1. q represents the scattering vector and is calculated as q=4π sin (θ)/λ, with θ as the scattering angle between the incident beam and detector and […] the X-ray wavelength. The plots of scattering intensity versus q were obtained using NIST software Igor Pro v8. The scattering intensities of PBS were subtracted from the PA samples using the Irena SAS macro, and the resulting plots were fitted using NCNR Analysis macro to a polydisperse core shell cylinder model.

[4] = Zeta potential; assay type: physicochemical
Method: Zeta potential: The PA charge was characterized using a Zetasizer Nano ZS (Malvern). Samples were prepared at 0.5 mM and passed through a 0.2 μm filter (Acrodisc® Syringe Filters with Supor® Membrane, Pall). At least 10 scans were taken per measurement, three measurements per sample at 25° C. and 37° C.

[5] = test system: J774.2 macrophages; assay: Cellular uptake and localization of ApoA1-Ac2-26 PA; assay type: cell-based, mouse
Method: Cellular uptake and localization of ApoA1-Ac2-26 PA: PAs containing 40 mol % ApoA1 PA, 10 mol % MMP-Ac2-26 or ROS-Ac2-26 PA, 45.5 mol % E2 filler PA, and 4.5 mol % E2 filler PA with AF546 were co-assembled as described above and aged at least 1 week in PBS at 4° C. to promote nanofiber formation. Macrophages were seeded onto 6-channel μ-Slide VI 0.4 (ibidi) at 2.1×10^5 cells/cm^2 and allowed to adhere for 24 hours before adding 0.33 μM 10% MMP- or ROS-Ac2-26 PA and incubated at 37° C. for 1 or 24 hours. At each time point, the samples were fixed with 4% paraformaldehyde for 10 minutes, followed by permeabilization with 0.125% Triton-X for 10 minutes. The samples were rinsed twice with PBS and incubated with blocking buffer consisting of 2% w/v BSA for one hour at room temperature before incubating with 20 μg/mL LAMP1 antibody (rabbit polyclonal, abcam) for 12-18 hours at 4° C. The samples were rinsed twice with PBS containing 0.01% Tween-20 at one hour per rinse followed by an hour rinse with PBS before adding 2 μg/mL donkey anti-rabbit Alexa Fluor Plus 647 (Highly cross-adsorbed secondary antibody, Invitrogen) for 12-18 hours at 4° C. The samples were rinsed twice with PBS before adding 5 μg/mL 4′,6-Diamidino-2-Phenylindole (DAPI, ThermoFisher Scientific) and phalloidin (1:1000 dilution, CruzFluor™ 488 conjugate, Santa Cruz Biotechnology) for one hour at room temperature. Samples were rinsed and stored in PBS until image analysis. Microscopy was performed using Zeiss 880 confocal microscopy at 63× magnification with numerical aperture of 1.4. Lasers at 405, 488, 561, and 633 nm were used to collect images through Multi Channel acquisition, which uses a separate scan for each channel to avoid spectral overlap. 3D images were created using z-stacks with 9-14 μm thick sections compiled from 0.22 μm slices using a line step of 1, speed of 8, and image size of 1024×1024 pixels at 16 bit depth. To examine colocalization of PAs to endosomes/lysosomes, Manders coefficient calculations using the Coloc 2 plugin from Fiji were used.

[6] = Treatment study serum chemistry (toxicology analysis); assay type: in vivo, mouse; settings: mouse, in vivo
Method: Blood samples were collected at the end of the treatment study for toxicology analysis. Mice were euthanized three days after their 16th treatment.
Tissue processing and imaging: Mice were sacrificed and euthanized under inhaled isoflurane anesthesia by diaphragm disruption and exsanguination. Phlebotomy was performed through direct right ventricular cardiac puncture using a 1 mL syringe and 25 G needle. Perfusion was performed through left ventricular cardiac puncture with 10 mL PBS and 10 mL 10% sucrose solution. The lungs, liver, spleen, kidney, aortic root, aortic arch, and descending aorta were harvested and stored in 10% sucrose for 20 minutes. Organs and vessels were then flash-frozen in Optimal Cutting Temperature embedding medium 4583 (Tissue-Tek®) with liquid nitrogen. Frozen specimens were stored at −80° C. and cryosectioned at […]. Confocal microscopy was performed on a Nikon AIR microscope. Two sets of images were acquired with a 10× Plan Fluor NA 0.3 objective. PAs were identified through quantification of the Alexa Fluor® 546 conjugated dye with 561 nm excitation and a 600/50 nm emission filter.
Statistics: The effect of treatments and sex on atherosclerosis progression in mice was analyzed using one- or two-factor analysis of variance (ANOVA) followed by a post-hoc student's t-test. The toxicological effects of treatments were also analyzed using two-factor ANOVA and a post-hoc student's t-test. Toxicological effects of treatments on liver proteins AST, ALT, and ALP were further analyzed using ordinal logistic regression models of likelihood ratio tests, followed by a post-hoc Wald test

Compound | median nanofiber length [1] | critical aggregation concentration (CAC) [2] | SAXS slope of Guinier regime in the low q region ([3]; 5 mM in PBS) | core radius (polydisperse core-shell cylinder model) ([3]; SAXS fit) | radial shell thickness (polydisperse core-shell cylinder model) ([3]; SAXS fit) | overall charge (zeta potential) ([4]; 25° C.) | overall charge (zeta potential) ([4]; 37° C.) | average Manders coefficient, LAMP1 to PA colocalization ([5]; 24 hours of treatment) | average Manders coefficient, PA to LAMP1 colocalization ([5]; 24 hours of treatment) | cellular retention of PAs ([5]; confocal microscopy) | Creatine [6] | aspartate aminotransferase (AST) in the blood in comparison to PBS [6]
10% MMP-Ac2-26 PA: co-assembly of 10 mol % MMP-Ac2-26 PA, 50 mol % E2 filler PA, and 40% ApoA1 PA (VVAAEEGGGPQGIWGQGKAMVSEFLKQAWFIENEEQEYVQTVK) | 159 nm | ~32 µM | −1.8 | 2.1 nm | 2.0 nm | −18.1±0.5 mV | maintained | 0.79 | 0.48 | found in the extracellular space | – | –
CCCCCCCCCCCCCCCC(=O)N[C@H](C(=O)N[C@H](C(=O)N[C@@H](C)C(=O)N[C@@H](C)C(=O)N[C@@H](CCC(=O)O)C(=O)N[C@@H](CCC(=O)O)C(=O)NCC(=O)N[C@@H](CC(=O)O)C(=O)N[C@@H](Cc1c[nH]c2ccccc12)C(=O)N[C@@H](Cc1ccccc1)C(=O)N[C@@H](CCCCN)C(=O)N[C@@H](C)C(=O)N[C@@H](Cc1ccccc1)C(=O)N[C@@H](Cc1ccc(O)cc1)C(=O)N[C@@H](CC(=O)O)C(=O)N[C@@H](CCCCN)C(=O)N[C@H](C(=O)N[C@@H](C)C(=O)N[C@@H](CCC(=O)O)C(=O)N[C@@H](CCCCN)C(=O)N[C@@H](Cc1ccccc1)C(=O)N[C@@H](CCCCN)C(=O)N[C@@H](CCC(=O)O)C(=O)N[C@@H](C)C(=O)N[C@@H](Cc1ccccc1)C(N)=O)C(C)C)C(C)C)C(C)C [ApoA1 PA] (Palmitoyl-VVAAEEGDWFKAFYDKVAEKFKEAF-NH2) | – | – | – | – | – | – | – | – | – | – | 0 U/L | Neither ApoA1-LXR PAs nor ApoA1 PAs increased AST levels
